Results reported in patent US20240052047A1 (Pfizer, published 2024).

Experiments:
[1] = target: human IL27 receptor (IL27RA/gp130 heterodimer) on human cells (human, UniProt Q6UWB1 33-636; P40189 23-918); assay: cell-based or functional assay
[2] = target: T1, cynomolgus IL27 receptor (IL27RA/gp130 heterodimer) on cynomolgus T cells (cynomolgus monkey); assay: cell-based or functional assay
T1 chain 1: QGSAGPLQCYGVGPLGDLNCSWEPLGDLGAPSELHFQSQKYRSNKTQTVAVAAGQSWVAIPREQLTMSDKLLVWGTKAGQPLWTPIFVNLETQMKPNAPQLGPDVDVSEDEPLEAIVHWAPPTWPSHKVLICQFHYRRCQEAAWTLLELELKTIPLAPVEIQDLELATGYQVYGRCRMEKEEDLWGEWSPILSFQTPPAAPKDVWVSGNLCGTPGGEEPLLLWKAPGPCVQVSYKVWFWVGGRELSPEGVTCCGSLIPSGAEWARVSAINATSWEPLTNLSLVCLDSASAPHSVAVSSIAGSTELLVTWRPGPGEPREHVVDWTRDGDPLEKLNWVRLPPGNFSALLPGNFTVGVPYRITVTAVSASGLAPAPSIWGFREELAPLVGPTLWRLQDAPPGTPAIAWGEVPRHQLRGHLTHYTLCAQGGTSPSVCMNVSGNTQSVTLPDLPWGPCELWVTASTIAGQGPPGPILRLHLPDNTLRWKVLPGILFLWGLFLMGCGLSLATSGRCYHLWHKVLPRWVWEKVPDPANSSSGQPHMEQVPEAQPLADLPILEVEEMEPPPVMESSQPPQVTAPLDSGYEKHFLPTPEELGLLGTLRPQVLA
T1 chain 2: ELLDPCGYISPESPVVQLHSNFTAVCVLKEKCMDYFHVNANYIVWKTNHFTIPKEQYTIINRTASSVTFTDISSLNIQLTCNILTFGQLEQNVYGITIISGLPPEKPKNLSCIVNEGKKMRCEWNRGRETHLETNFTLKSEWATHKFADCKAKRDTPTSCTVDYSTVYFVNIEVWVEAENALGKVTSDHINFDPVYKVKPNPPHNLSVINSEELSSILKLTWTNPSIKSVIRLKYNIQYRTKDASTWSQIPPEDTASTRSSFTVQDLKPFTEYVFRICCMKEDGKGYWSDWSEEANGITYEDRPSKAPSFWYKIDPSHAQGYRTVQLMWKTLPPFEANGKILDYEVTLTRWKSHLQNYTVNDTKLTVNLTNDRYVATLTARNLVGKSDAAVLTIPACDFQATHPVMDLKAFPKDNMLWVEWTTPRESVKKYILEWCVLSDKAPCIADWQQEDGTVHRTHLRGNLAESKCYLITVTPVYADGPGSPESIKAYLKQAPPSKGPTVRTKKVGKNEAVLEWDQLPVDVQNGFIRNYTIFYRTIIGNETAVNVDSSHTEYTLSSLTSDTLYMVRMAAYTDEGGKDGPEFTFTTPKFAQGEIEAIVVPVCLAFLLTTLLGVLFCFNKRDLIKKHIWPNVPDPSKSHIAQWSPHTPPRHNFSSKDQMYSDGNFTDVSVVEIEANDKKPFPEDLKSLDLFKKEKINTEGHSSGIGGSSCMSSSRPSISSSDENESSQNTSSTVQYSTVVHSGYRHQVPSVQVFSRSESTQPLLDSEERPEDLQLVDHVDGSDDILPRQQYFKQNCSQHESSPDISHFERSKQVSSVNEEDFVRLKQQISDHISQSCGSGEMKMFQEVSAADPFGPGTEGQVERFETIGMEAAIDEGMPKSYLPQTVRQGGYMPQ

Cynomolgus monkey IL27RA = target: T2, Cynomolgus monkey IL27RA (cynomolgus monkey); assay: SPR Biacore 8K+, 37 C; mAb-4894 captured by anti-Fab, antigen as analyte; 1:1 Langmuir fit
T2 construct: Soluble SPR analyte; also called Cyno IL27R; cyIL27R
T2 chain: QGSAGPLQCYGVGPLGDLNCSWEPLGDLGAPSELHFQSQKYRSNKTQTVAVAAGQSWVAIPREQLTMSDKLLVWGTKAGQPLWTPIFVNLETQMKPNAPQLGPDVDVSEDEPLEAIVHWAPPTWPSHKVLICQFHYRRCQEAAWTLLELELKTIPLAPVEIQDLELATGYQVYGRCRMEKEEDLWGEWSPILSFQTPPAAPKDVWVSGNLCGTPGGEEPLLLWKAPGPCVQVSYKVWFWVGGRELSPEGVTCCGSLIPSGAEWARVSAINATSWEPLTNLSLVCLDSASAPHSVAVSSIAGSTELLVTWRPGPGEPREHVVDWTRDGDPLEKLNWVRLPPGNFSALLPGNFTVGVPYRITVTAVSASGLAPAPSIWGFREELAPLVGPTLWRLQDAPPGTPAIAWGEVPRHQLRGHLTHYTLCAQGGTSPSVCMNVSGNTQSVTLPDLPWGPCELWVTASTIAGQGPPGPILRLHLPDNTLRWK
Protocol: The crossreactivity of mAb-4894 to human and cynomolgus monkey antigens, gp130 (human—SEQ ID NO: 45, cynomolgus—SEQ ID No: 46) and IL27RA (human—SEQ ID NO: 41, cynomolgus—SEQ ID No: 42), was measured by surface plasmon resonance by anti-FAB capture of mAb-4894 (containing arms of anti-IL27RA-4880 EE and anti-gp130-4875 RR) on a biacore chip. Human or cynomolgus monkey IL27RA or gp130 was flowed over the chip and on and off rates were determined, and the affinity constants calculated.
Flow cell 1 for each channel was used as a reference flow cell. After antibody capture, three-fold dilution series of cytokines with concentrations ranging from 405 nM to 15 nM for huGP130 and cyGP130 and 45 nM to 1.67 nM for huIL27R and cyIL27R or HBS-EP+ buffer were injected over the sensor surface for 60 seconds at 50 μl/minute. The dissociation was monitored for 600 seconds and the surface was regenerated with 2 injections of 10 mM Glycine pH 1.7 at 30 μl/minute. The data was double referenced (Myszka, D., J. Mol. Recognit 1999; 279-284). Binding affinities and rate constants were determined for human and cyno GP130 and IL27R by fitting the resulting sensorgram data to a 1:1 Langmuir model in BIAcore Insight Evaluation software version 3.0.12.15655 (Cytiva).

B1: mAb-4894 anti-IL27RA/gp130 bispecific antibody (bispecific antibody, human IgG1)
heavy 1: EVQLVESGGGLVQPGGSLRLSCAASGFTFEYFGLQWVRQAPGKGLEWIGYTSSGGNYEYYEETLKGRFTISRDNAKNSLYLQMNSLRAEDTAVYYCARTKTGDYWGQGTLVTVSSASTKGPSVFPLAPSSKSTSGGTAALGCLVKDYFPEPVTVSWNSGALTSGVHTFPAVLQSSGLYSLSSVVTVPSSSLGTQTYICNVNHKPSNTKVDKKVEPKSCEKTHTCPPCPAPEAAGAPSVFLFPPKPKDTLMISRTPEVTCVVVDVSHEDPEVKFNWYVDGVEVHNAKTKPREEQYNSTYRVVSVLTVLHQDWLNGKEYKCKVSNKALPAPIEKTISKAKGQPREPQVYTLPPSREEMTKNQVSLTCEVKGFYPSDIAVEWESNGQPENNYKTTPPVLDSDGSFFLYSKLTVDKSRWQQGNVFSCSVMHEALHNHYTQKSLSLSPGK
light 1: DIQMTQSPSSLSASVGDRVTITCRASQDIGNSLTWYQQKPGKAPKRVIFGATGLAAGVPSRFSGSGSGTDFTLTISSLQPEDFATYYCLQSKQYPYTFGQGTKLEIKRTVAAPSVFIFPPSDEQLKSGTASVVCLLNNFYPREAKVQWKVDNALQSGNSQESVTEQDSKDSTYSLSSTLTLSKADYEKHKVYACEVTHQGLSSPVTKSFNRGEC
heavy 2: QVQLVQSGAEVKKPGSSVKVSCKVSGGSISSYYWSWVRQAPGQGLEWIGRIYITGNTNYNPSLKDRVTMTVDTSTSTHYMELSSLRSEDTAVYYCAREGPKLGIFDYWGQGTLVTVSSASTKGPSVFPLAPSSKSTSGGTAALGCLVKDYFPEPVTVSWNSGALTSGVHTFPAVLQSSGLYSLSSVVTVPSSSLGTQTYICNVNHKPSNTKVDKKVEPKSCRKTHTCPPCPAPEAAGAPSVFLFPPKPKDTLMISRTPEVTCVVVDVSHEDPEVKFNWYVDGVEVHNAKTKPREEQYNSTYRVVSVLTVLHQDWLNGKEYKCKVSNKALPAPIEKTISKAKGQPREPQVYTLPPSREEMTKNQVSLTCLVKGFYPSDIAVEWESNGQPENNYKTTPPVLDSDGSFFLYSRLTVDKSRWQQGNVFSCSVMHEALHNHYTQKSLSLSPGK
light 2: DIQMTQSPSSLSASVGDRVTITCRASQSVSSSYLAWYQQKPGKAPKLLIYGTESRATGVPSRFSGSGSGTDFTLTISSLQPEDFATYYCQQYGGYPTFGGGTKVEIKRTVAAPSVFIFPPSDEQLKSGTASVVCLLNNFYPREAKVQWKVDNALQSGNSQESVTEQDSKDSTYSLSSTLTLSKADYEKHKVYACEVTHQGLSSPVTKSFNRGEC
notes: Human IgG1 EE/RR heterodimer with L234A, L235A, G237A (EU); also called GBT-IL27R-4894; GBT-IL-27R-4894
For B1, the “Monocyte IDO1 EC50 (human PBMC, CD14+ monocytes, flow cytometry)” value [1] was 0.005 nM, the “Monocyte PD-L1 EC50 (human whole blood, flow cytometry)” value [1] was 0.002 nM and the “Primary Colonocytes IDO1 activity EC50 (kynurenine by LC-MS)” value [1] was 5.4 nM. The “T Cell pSTAT1 EC50 (human whole blood, CD3+ T cells, flow cytometry)” value [1] was 0.4 nM, the “T Cell pSTAT3 EC50 (human whole blood, CD3+ T cells, flow cytometry)” value [1] was 0.2 nM and the “T Cell pSTAT1 EC50 (cynomolgus whole blood, CD3+ T cells, flow cytometry)” value [2] was 1.74 nM. For the same binder, the “T Cell pSTAT3 EC50 (cynomolgus whole blood, CD3+ T cells, flow cytometry)” value [2] was 1.17 nM, the Kd (Cynomolgus monkey IL27RA) was 1.68 nM and the koff (Cynomolgus monkey IL27RA) was 0.00195 s⁻¹. For the same binder, the kon (Cynomolgus monkey IL27RA) was 1.17e+06 M⁻¹ s⁻¹.
